These results are taken from PMC11269473, “Monoamine oxidase inhibition properties of 2,1-benzisoxazole derivatives” (Molecular Diversity, 2023).

Substrate in data set [1]: NCCC(=O)c1ccccc1N
Briefly: Lineweaver–Burk plots / mode of MAO-B inhibition and Ki. It is filed as biochemical, human. To be noted: other: global (shared) fitting of the kinetic data; pH 7.4; 37.0 °C. The protocol:
(§1) These two compounds represent potent MAO inhibitors among the study compounds. […] Each line of the Lineweaver–Burk plots was constructed with the kynuramine concentration ranging from 15 to 250 μM.
(§2) The insets are replots of the slopes of the Lineweaver–Burk plots versus inhibitor concentration. The Ki value equals the negative of the x-axis intercept when y = 0
(§3) IC50 values for the inhibition of MAO were measured as described previously. Microsomes from insect cells containing recombinant human MAO-A and MAO-B (5 mg protein/mL) served as enzyme sources (Sigma-Aldrich) while kynuramine was used as non-specific MAO substrate. The enzyme reactions (200 µL reactions prepared in 96-well microtiter plates) contained phosphate buffer (100 mM, pH 7.4), 50 µM kynuramine and the test inhibitors at concentrations of 0.003–100 µM. Stock solutions of the test inhibitors were dissolved in DMSO and added to the enzyme reactions to give a final DMSO concentration of 4% (v/v). […] The concentration of 4-hydroxyquinoline, the product of kynuramine oxidation by MAO, was measured by fluorescence spectrophotometry (λex = 310 nm; λem = 400 nm). […] IC50 values were estimated in triplicate determinations from these plots and are expressed as mean ± standard deviation (SD). […]

Substrate in data set [2]: NCCC(=O)c1ccccc1N
Briefly: Lineweaver–Burk plots / mode of MAO-A inhibition and Ki. It is filed as biochemical, human. The note with it: other: global (shared) fitting of the kinetic data; pH 7.4; 37.0 °C. The protocol: as §1, §2, §3

B1: recombinant human MAO-B (Homo sapiens) (protein)
chain: MSNKCDVVVVGGGISGMAAAKLLHDSGLNVVVLEARDRVGGRTYTLRNQKVKYVDLGGSYVGPTQNRILRLAKELGLETYKVNEVERLIHHVKGKSYPFRGPFPPVWNPITYLDHNNFWRTMDDMGREIPSDAPWKAPLAEEWDNMTMKELLDKLCWTESAKQLATLFVNLCVTAETHEVSALWFLWYVKQCGGTTRIISTTNGGQERKFVGGSGQVSERIMDLLGDRVKLERPVIYIDQTRENVLVETLNHEMYEAKYVISAIPPTLGMKIHFNPPLPMMRNQMITRVPLGSVIKCIVYYKEPFWRKKDYCGTMIIDGEEAPVAYTLDDTKPEGNYAAIMGFILAHKARKLARLTKEERLKKLCELYAKVLGSLEALEPVHYEEKNWCEEQYSGGCYTTYFPPGILTQYGRVLRQPVDRIYFAGTETATHWSGYMEGAVEAGERAAREILHAMGKIPEDEIWQSEPESVDVPAQPITTTFLERHLPSVPGLLRLIGLTTIFSATALGFLAHKRGLLVRV
notes: purchased Sigma-Aldrich; host or cells: insect cells (microsomes)
In the case of B1, in data set [1], the Km – broadly, the substrate concentration at which the rate is half of its maximum – is 32.4 ± 3.73 µM and the Vmax came out at 8.39 ± 0.28 nmol/min.mg protein.

B2: recombinant human MAO-A (Homo sapiens) (protein)
chain: MENQEKASIAGHMFDVVVIGGGISGLSAAKLLTEYGVSVLVLEARDRVGGRTYTIRNEHVDYVDVGGAYVGPTQNRILRLSKELGIETYKVNVSERLVQYVKGKTYPFRGAFPPVWNPIAYLDYNNLWRTIDNMGKEIPTDAPWEAQHADKWDKMTMKELIDKICWTKTARRFAYLFVNINVTSEPHEVSALWFLWYVKQCGGTTRIFSVTNGGQERKFVGGSGQVSERIMDLLGDQVKLNHPVTHVDQSSDNIIIETLNHEHYECKYVINAIPPTLTAKIHFRPELPAERNQLIQRLPMGAVIKCMMYYKEAFWKKKDYCGCMIIEDEDAPISITLDDTKPDGSLPAIMGFILARKADRLAKLHKEIRKKKICELYAKVLGSQEALHPVHYEEKNWCEEQYSGGCYTAYFPPGIMTQYGRVIRQPVGRIFFAGTETATKWSGYMEGAVEAGERAAREVLNGLGKVTEKDIWVQEPESKDVPAVEITHTFWERNLPSVSGLLKIIGFSTSVTALGFVLYKYKLLPRS
notes: as for B1
For the protein B2, in data set [2], the Km came to 49.8 ± 3.07 µM and the Vmax turned out to be 34.0 ± 0.80 nmol/min.mg protein.
